Series [1] in a line: Oligomerization of synthetic Y-P30 and resistance to denaturing agents (SDS-PAGE/immunoblot). Format: physicochemical. The conditions noted are these: immunoblot. On the technique in general: In western blotting, separated proteins are transferred to a membrane and probed.
Method: (§1) Y-P30 (aa 21–49) was synthesized as described previously [1]. For measuring stability of the peptide in vitro, Y-P30 was diluted in PBS (2 μg/μl) and incubated at room temperature over 24, 48 and 72 hours as well as 7 and 14 days. Additionally, the effect of different denaturing agents (urea, 8 M; dithiothreitol (DTT), 50 mM and 100 mM; iodoacetamide, 50 mM) was studied with incubation times of 2 and 12 hours. Thereafter, 4x sample loading dye (containing 5% beta-mercaptoethanol and 8% SDS) was added to 1x final concentration, all samples were boiled for 5 min at 95°C and subjected to SDS-PAGE with subsequent immunoblotting using a rabbit anti-Y-P30 antibody described previously [1, 2].
The conditions of series [2]: chemical stability; Y-P30 (aa 21-49) 2 μg/μl in PBS, room temperature, Eppendorf tube on bench shelf with regular light exposure; 24, 48, 72 h, 7 and 14 days; SDS-PAGE, immunoblot with rabbit anti-Y-P30; 13,5 μg per lane.
Method: as §1

On to “Y-P30: synthetic survival promoting peptide, aa 21–49 of the human Y-P30/dermcidin precursor (DPEAASAPGSGNPCHEASAAQKENAGEDP; Survival-promoting peptide; UniProt P81605 21-49, looked up, fragment)”, for which the “apparent size of SDS-resistant multimer of the synthetic peptide” value in series [1] (SDS-PAGE after boiling 5 min at 95°C in loading dye (5% beta-mercaptoethanol, 8% SDS at 4x), 10 μg per lane) was 10–15 kDa. Also, in series [1] (urea 8 M, DTT 50 mM and 100 mM, iodoacetamide 50 mM, incubation 2 h and 12 h (overnight), SDS-PAGE), the “resistance of the 10-15 kDa oligomer species to denaturing agents” value was “resistant to urea, DTT and iodoacetamide”. The “time for which the 15 kDA oligomer is stable” value in series [2] is on record as “at least 14 days”.

The values above are taken from paper PMC4082292, “Analysis of Y-P30/Dermcidin expression and properties of the Y-P30 peptide” (BMC Research Notes, 2014).
